In patent US20260242478A1 (published 2026):
Where no end group is shown, it is not given here.

Tests used:
[1] = molecular target: T1, Anti-CD28 Fab (SEQ ID NOs: 696, 697); test: phage binding ELISA; clonal phage supernatant on biotinylated anti-CD28 Fab captured on neutravidin plate; anti-M13 HRP detection
T1 construct: Biotinylated and captured on neutravidin coated plates in the phage ELISA
T1 sequence (VH, as listed by the source, chain 1 of 2): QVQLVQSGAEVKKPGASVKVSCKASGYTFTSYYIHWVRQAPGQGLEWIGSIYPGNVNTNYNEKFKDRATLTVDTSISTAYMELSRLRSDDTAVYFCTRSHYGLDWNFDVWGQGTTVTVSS
T1 sequence (VL, as listed by the source, chain 2 of 2): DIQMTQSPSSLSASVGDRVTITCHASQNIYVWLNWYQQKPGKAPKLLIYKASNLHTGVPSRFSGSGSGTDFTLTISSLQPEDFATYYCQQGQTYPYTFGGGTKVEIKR
Description: (§1) After panning, phage infected bacteria were plated out and colonies picked into 96 well blocks. Clonal phage was then amplified and separated from bacterial cells via centrifugation.
(§2) Clonal phage were harvested as crude supematants and screened via standard ELISAs. […] Prior to the addition of clonal phage, wells were incubated with blocking buffer and CD28 antigen or blocking buffer alone. Without washing or aspirating, clonal phage supematants were then added to the wells and incubated for a short time. Wells were then washed followed by detection of bound phage using a horse radish conjugated anti-M13 antibody. Clonal phage of interest were then sent for sequence analysis.

[2] = molecular target: T1, Anti-CD28 Fab (SEQ ID NOs: 696, 697); test: phage binding ELISA on captured anti-CD28 Fab, wells pre-incubated with CD28 antigen as competitor; anti-M13 HRP detection;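 for Anti-CD28 Fab signal in the presence of CD28: crude clonal phage supernatants added to wells preloaded with CD28 antigen, bound phage read by HRP-conjugated anti-M13 antibody, control wells got blocking buffer alone without CD28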
Description: as §1, §2

[3] = molecular target: T2, Anti-CD28 Fab (SEQ ID NOs: 696, 697); test: phage binding ELISA, clonal phage on biotinylated anti-CD28 Fab captured on neutravidin plates, anti-M13 HRP detection
T2 construct: In the phage ELISA the Fab was biotinylated and captured on neutravidin coated plates
T2 sequence (VH, as listed by the source, chain 1 of 2): as the sequence (VH, as listed by the source, chain 1 of 2) above
T2 sequence (VL, as listed by the source, chain 2 of 2): as the sequence (VL, as listed by the source, chain 2 of 2) above
Description: as §1, §2

[4] = molecular target: T2, Anti-CD28 Fab (SEQ ID NOs: 696, 697); test: phage binding ELISA on captured anti-CD28 Fab, wells pre-incubated with CD28 antigen as competitor;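 note: crude clonal phage supernatants added to wells preloaded with CD28 antigen, bound phage read by HRP-conjugated anti-M13 antibody, control wells got blocking buffer alone without CD28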
Description: as §1, §2

[5] = molecular target: T3, Anti-CD28 Fab (SEQ ID NOs: 696, 697); test: phage binding ELISA, clonal phage on biotinylated anti-CD28 Fab captured on neutravidin plates;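 note: crude clonal phage supernatants added to wells pretreated with CD28 antigen or blocking buffer only, bound phage detected by HRP-linked anti-M13 antibody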
T3 construct: Biotinylated and captured on neutravidin coated plates in the phage ELISA
T3 sequence (VH, as listed by the source, chain 1 of 2): as the sequence (VH, as listed by the source, chain 1 of 2) above
T3 sequence (VL, as listed by the source, chain 2 of 2): as the sequence (VL, as listed by the source, chain 2 of 2) above
Description: as §1, §2

[6] = molecular target: T3, Anti-CD28 Fab (SEQ ID NOs: 696, 697); test: phage binding ELISA on plate-bound anti-CD28 Fab, wells pre-incubated with CD28 antigen as competitor
Description: as §1, §2

[7] = molecular target: T4, Anti-CD28 Fab (SEQ ID NOs: 696, 697); test: phage binding ELISA on Fab coated plate; wells pre-incubated with CD28 antigen as competitor
T4 construct: In the phage ELISA the Fab was biotinylated and captured on neutravidin coated plates
T4 sequence (VH, as listed by the source, chain 1 of 2): as the sequence (VH, as listed by the source, chain 1 of 2) above
T4 sequence (VL, as listed by the source, chain 2 of 2): as the sequence (VL, as listed by the source, chain 2 of 2) above
Description: as §1, §2

[8] = molecular target: T4, Anti-CD28 Fab (SEQ ID NOs: 696, 697); test: phage binding ELISA; biotinylated Fab on neutravidin plate, clonal phage supernatant, anti-M13 HRP detection;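 note: phage from clones picked after panning, added to wells pre-incubated with blocking buffer with or without CD28 antigen, then briefly incubated and washed before detection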
Description: as §1, §2

Binder	Anti-CD28 Fab (SEQ ID NOs: 696, 697) signal [3]	Anti-CD28 Fab signal in the presence of CD28 [4]	Anti-CD28 Fab (SEQ ID NOs: 696, 697) signal [5]	Anti-CD28 Fab signal in the presence of CD28 [6]	other results
YCAGHVPEYMAKCL [Phage-829 (Peptide-87 library sequence, SEQ ID NO: 1145)]					Phage binding ELISA, Anti-CD28 Fab signal [1]: 1.78; Phage binding ELISA, Anti-CD28 Fab signal in the presence of CD28 [2]: 0.07
YCDGHSAEYITKCL [Phage-830 (Peptide-87 library sequence, SEQ ID NO: 1146)]					Phage binding ELISA, Anti-CD28 Fab signal [1]: 1.77; Phage binding ELISA, Anti-CD28 Fab signal in the presence of CD28 [2]: 0.06
YCEGHLDEYMWKCL [Phage-831 (Peptide-87 library sequence, SEQ ID NO: 1147)]					Phage binding ELISA, Anti-CD28 Fab signal [1]: 1.77; Phage binding ELISA, Anti-CD28 Fab signal in the presence of CD28 [2]: 0.06
YCDGLASEYMSKCL [Phage-832 (Peptide-87 library sequence, SEQ ID NO: 1148)]					Phage binding ELISA, Anti-CD28 Fab signal [1]: 1.77; Phage binding ELISA, Anti-CD28 Fab signal in the presence of CD28 [2]: 0.05
YCDGHSSEYIAKCL [Phage-833 (Peptide-87 library sequence, SEQ ID NO: 1149)]					Phage binding ELISA, Anti-CD28 Fab signal [1]: 1.77; Phage binding ELISA, Anti-CD28 Fab signal in the presence of CD28 [2]: 0.07
YCEGHSPQYVQKCL [Phage-834 (Peptide-87 library sequence, SEQ ID NO: 1150)]					Phage binding ELISA, Anti-CD28 Fab signal [1]: 1.77; Phage binding ELISA, Anti-CD28 Fab signal in the presence of CD28 [2]: 0.06
YCEGHSPEYMRKCL [Phage-835 (Peptide-87 library sequence, SEQ ID NO: 1151)]					Phage binding ELISA, Anti-CD28 Fab signal [1]: 1.77; Phage binding ELISA, Anti-CD28 Fab signal in the presence of CD28 [2]: 0.08
YCDGHLDEYMEKCL [Phage-836 (Peptide-87 library sequence, SEQ ID NO: 1152)]					Phage binding ELISA, Anti-CD28 Fab signal [1]: 1.76; Phage binding ELISA, Anti-CD28 Fab signal in the presence of CD28 [2]: 0.08
YCAGHLPEYMLKCL [Phage-837 (Peptide-87 library sequence, SEQ ID NO: 1153)]					Phage binding ELISA, Anti-CD28 Fab signal [1]: 1.76; Phage binding ELISA, Anti-CD28 Fab signal in the presence of CD28 [2]: 0.09
YCEGHLPIYMSKCL [Phage-838 (Peptide-87 library sequence, SEQ ID NO: 1154)]					Phage binding ELISA, Anti-CD28 Fab signal [1]: 1.76; Phage binding ELISA, Anti-CD28 Fab signal in the presence of CD28 [2]: 0.09
YCVGHLQEYMEKCL [Phage-839 (Peptide-87 library sequence, SEQ ID NO: 1155)]					Phage binding ELISA, Anti-CD28 Fab signal [1]: 1.76; Phage binding ELISA, Anti-CD28 Fab signal in the presence of CD28 [2]: 0.06
YCDGHSPQYMQKCL (cysteine pairing not given here; also: displayed on phage by fusion to pIII, pIII and linker sequence not given here, Peptide-87 library clone, tested as clonal phage supernatant) [Phage-840]	1.76	0.07			
YCDGHIPEYLAKCL (cysteine pairing not given here; also: displayed on phage by fusion to pIII, pIII and linker sequence not given here, Peptide-87 library clone, tested as clonal phage supernatant) [Phage-841]	1.76	0.06			
YCDGHSQEYMLKCL (cysteine pairing not given here; also: displayed on phage by fusion to pIII, pIII and linker sequence not given here, Peptide-87 library clone, tested as clonal phage supernatant) [Phage-842]	1.76	0.05			
YCDGHVEPYLSKCL (cysteine pairing not given here; also: displayed on phage by fusion to pIII, pIII and linker sequence not given here, Peptide-87 library clone, tested as clonal phage supernatant) [Phage-843]	1.76	0.1			
YCDGHKPQYMEKCL (Peptide-87 library clone, tested as clonal phage supernatant) [Phage-844]	1.76	0.08			
YCDGHIGEYMVKCL (Peptide-87 library clone, tested as clonal phage supernatant) [Phage-845]	1.76	0.66			
YCEGHLAQYMNKCL (Peptide-87 library clone, tested as clonal phage supernatant) [Phage-846]	1.76	0.07			
YCDGHVQEYMQKCL (Peptide-87 library clone, tested as clonal phage supernatant) [Phage-847]	1.76	0.07			
YCHGHLQEYMAKCL (Peptide-87 library clone, tested as clonal phage supernatant) [Phage-848]	1.76	0.07			

Binder	Anti-CD28 Fab (SEQ ID NOs: 696, 697) signal [3]	Anti-CD28 Fab signal in the presence of CD28 [4]	Anti-CD28 Fab (SEQ ID NOs: 696, 697) signal [5]	Anti-CD28 Fab signal in the presence of CD28 [6]	other results
YCDGHSPEYMNKCL (Peptide-87 library clone, tested as clonal phage supernatant) [Phage-849]	1.75	0.06			
YCDGHAPVYMAKCL (Peptide-87 library clone, tested as clonal phage supernatant) [Phage-850]	1.75	0.06			
YCEGHSAEYMLKCL (Peptide-87 library clone, tested as clonal phage supernatant) [Phage-851]	1.75	0.07			
YCDGHHIEYLAKCL (Peptide-87 library clone, tested as clonal phage supernatant) [Phage-852]	1.75	0.1			
YCEGHLPEYMQKCL (Peptide-87 library clone, tested as clonal phage (peptide fused to pIII)) [Phage-854]			1.75	0.07	
YCSGHLPEYMQKCL (Peptide-87 library clone, tested as clonal phage (peptide fused to pIII)) [Phage-853]			1.75	0.08	
YCEGHLPDYMQKCL (Peptide-87 library clone, tested as clonal phage (peptide fused to pIII)) [Phage-862]			1.73	0.07	
YCDGHSLQYMDKCL (Peptide-87 library clone, tested as clonal phage (peptide fused to pIII)) [Phage-855]			1.75	0.06	
YCDGHYPEYMSKCL (Peptide-87 library clone, tested as clonal phage (peptide fused to pIII)) [Phage-856]			1.75	0.06	
YCDGHASEYMAKCL (Peptide-87 library clone, tested as clonal phage (peptide fused to pIII)) [Phage-857]			1.75	0.09	
YCDGHAEKYMQKCL (Peptide-87 library clone, tested as clonal phage (peptide fused to pIII)) [Phage-858]			1.74	0.06	
YCEGHAIEYLAKCL (Peptide-87 library clone, tested as clonal phage (peptide fused to pIII)) [Phage-859]			1.74	0.07	
YCEGHSAEYMEKCL (Peptide-87 library clone, tested as clonal phage (peptide fused to pIII)) [Phage-860]			1.73	0.07	
YCSGHSAEYMLKCL (Peptide-87 library clone, tested as clonal phage (peptide fused to pIII)) [Phage-861]			1.73	0.08	
YCDGHLEEYMVKCM (Peptide-87 library clone, tested as clonal phage (peptide fused to pIII)) [Phage-863]			1.73	0.06	
YCEGHLQTYMAKCL (Peptide-87 library clone, tested as clonal phage (peptide fused to pIII)) [Phage-864]			1.73	0.07	
YCAGHSQEHIQKCL (Peptide-87 library clone, tested as clonal phage (peptide fused to pIII)) [Phage-865]			1.73	0.09	
YCDGHLPEYIFKCL (cysteine pairing not given here; also: fused to phage pIII coat protein (sequence and linker not given here), not shown: pIII coat protein of the bacteriophage to which the peptide is fused) [Phage-866]					Anti-CD28 Fab signal in the presence of CD28 [7]: 0.09; Anti-CD28 Fab (SEQ ID NOs: 696, 697) signal [8]: 1.73
YCSGHLPEYMGKCL (cysteine pairing not given here; also: fused to phage pIII coat protein (sequence and linker not given here), not shown: pIII coat protein of the bacteriophage to which the peptide is fused) [Phage-867]					Anti-CD28 Fab signal in the presence of CD28 [7]: 0.1; Anti-CD28 Fab (SEQ ID NOs: 696, 697) signal [8]: 1.73
YCDGHAEEYLWKCL (cysteine pairing not given here; also: fused to phage pIII coat protein (sequence and linker not given here), not shown: pIII coat protein of the bacteriophage to which the peptide is fused) [Phage-868]					Anti-CD28 Fab signal in the presence of CD28 [7]: 0.06; Anti-CD28 Fab (SEQ ID NOs: 696, 697) signal [8]: 1.73
